IntAct's records for PubMed 24944246

B1: Krueppel-like factor 10 (Homo sapiens), Q13118 (parent)
chain: MLNFGASLQQTAEERMEMISERPKESMYSWNKTAEKSDFEAVEALMSMSCSWKSDFKKYVENRPVTPVSDLSEEENLLPGTPDFHTIPAFCLTPPYSPSDFEPSQVSNLMAPAPSTVHFKSLSDTAKPHIAAPFKEEEKSPVSAPKLPKAQATSVIRHTADAQLCNHQTCPMKAASILNYQNNSFRRRTHLNVEAARKNIPCAAVSPNRSKCERNTVADVDEKASAALYDFSVPSSETVICRSQPAPVSPQQKSVLVSPPAVSAGGVPPMPVICQMVPLPANNPVVTTVVPSTPPSQPPAVCPPVVFMGTQVPKGAVMFVVPQPVVQSSKPPVVSPNGTRLSPIAPAPGFSPSAAKVTPQIDSSRIRSHICSHPGCGKTYFKSSHLKAHTRTHTGEKPFSCSWKGCERRFARSDELSRHRRTHTGEKKFACPMCDRRFMRSDHLTKHARRHLSAKKLPNWQMEVSKLNDIALPPTPAPTQ
partner: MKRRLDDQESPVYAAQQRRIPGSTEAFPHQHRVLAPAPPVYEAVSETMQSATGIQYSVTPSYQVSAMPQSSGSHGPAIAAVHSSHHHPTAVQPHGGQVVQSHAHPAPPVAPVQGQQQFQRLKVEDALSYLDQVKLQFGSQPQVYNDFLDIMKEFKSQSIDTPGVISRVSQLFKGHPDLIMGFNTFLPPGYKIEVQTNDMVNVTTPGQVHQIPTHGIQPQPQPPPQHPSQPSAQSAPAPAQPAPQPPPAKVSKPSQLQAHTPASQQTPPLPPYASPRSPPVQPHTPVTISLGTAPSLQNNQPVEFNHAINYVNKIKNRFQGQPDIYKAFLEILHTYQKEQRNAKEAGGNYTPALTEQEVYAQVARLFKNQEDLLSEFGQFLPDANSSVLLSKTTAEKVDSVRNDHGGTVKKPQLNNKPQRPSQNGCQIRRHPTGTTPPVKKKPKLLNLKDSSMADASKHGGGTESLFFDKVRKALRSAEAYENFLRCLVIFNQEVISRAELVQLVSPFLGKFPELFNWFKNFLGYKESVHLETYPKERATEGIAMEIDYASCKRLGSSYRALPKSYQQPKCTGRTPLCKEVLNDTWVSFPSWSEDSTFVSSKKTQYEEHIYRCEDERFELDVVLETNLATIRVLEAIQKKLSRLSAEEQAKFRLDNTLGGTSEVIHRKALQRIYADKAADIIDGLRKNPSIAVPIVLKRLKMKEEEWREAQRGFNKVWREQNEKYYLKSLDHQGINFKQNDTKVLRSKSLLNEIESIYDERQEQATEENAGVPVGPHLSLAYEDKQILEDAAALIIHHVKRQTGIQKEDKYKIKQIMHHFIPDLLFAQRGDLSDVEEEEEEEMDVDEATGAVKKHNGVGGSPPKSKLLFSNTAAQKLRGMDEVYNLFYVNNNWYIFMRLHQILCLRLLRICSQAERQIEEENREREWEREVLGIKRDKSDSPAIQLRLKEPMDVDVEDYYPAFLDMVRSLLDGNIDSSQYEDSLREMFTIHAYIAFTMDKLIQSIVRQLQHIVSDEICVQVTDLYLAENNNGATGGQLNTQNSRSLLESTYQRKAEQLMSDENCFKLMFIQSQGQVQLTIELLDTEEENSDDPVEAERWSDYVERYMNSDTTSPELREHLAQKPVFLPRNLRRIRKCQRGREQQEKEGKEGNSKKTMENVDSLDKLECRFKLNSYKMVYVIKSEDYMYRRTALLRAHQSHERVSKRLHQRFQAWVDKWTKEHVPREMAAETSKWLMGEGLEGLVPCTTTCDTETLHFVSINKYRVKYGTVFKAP

Variants of: B1
Details: with sin3a_human SIN3A

Row | effect of a mutation on the interaction | Variant
1 | disrupting interaction strength | E40P;A41P
